Data taken from patent US20250011363A1, “OPTIMIZED SHORTENED PEPTIDE THAT BINDS TO ACETYLCHOLINE RECEPTOR, AND USE THEREOF” (SKINMED CO., LTD., priority 2021, published 2025).

molecular target: acetylcholine receptor (Homo sapiens, UniProt P02708); assay: SPR binding affinity (RU) of optimized 5mer/6mer/7mer peptides, Examples 6-7; conditions: 6mer-1 Top sequence; SPR; peptides tested at 10 μM
Protocol: Based on the frequencies of occurrence of the top 7 amino acids from Table 7 in Example 5, 600 peptides comprising these amino acids (top combinations) and those comprising the 13 less frequently occurring amino acids (bottom combinations) were synthesized for each series of 5mer, 6mer-1, and 6mer-2. The binding affinity of each sequence for the acetylcholine receptor was measured using Surface Plasmon Resonance (SPR) analysis method. The peptides were tested at a concentration of 10 μM. Additionally, the average binding affinities of the top and bottom combinations in each series are depicted in FIGS. 5-7.
Representative peptides identified in Example 6, two in each library, including 5mers (73, 311) and 6mers-1 (43, 210) and 6mers-2 (136, 233), were compared with the pre-optimized 6mer, 5mer-ND, and Synake.

Chain of acetylcholine receptor (P02708 21-457): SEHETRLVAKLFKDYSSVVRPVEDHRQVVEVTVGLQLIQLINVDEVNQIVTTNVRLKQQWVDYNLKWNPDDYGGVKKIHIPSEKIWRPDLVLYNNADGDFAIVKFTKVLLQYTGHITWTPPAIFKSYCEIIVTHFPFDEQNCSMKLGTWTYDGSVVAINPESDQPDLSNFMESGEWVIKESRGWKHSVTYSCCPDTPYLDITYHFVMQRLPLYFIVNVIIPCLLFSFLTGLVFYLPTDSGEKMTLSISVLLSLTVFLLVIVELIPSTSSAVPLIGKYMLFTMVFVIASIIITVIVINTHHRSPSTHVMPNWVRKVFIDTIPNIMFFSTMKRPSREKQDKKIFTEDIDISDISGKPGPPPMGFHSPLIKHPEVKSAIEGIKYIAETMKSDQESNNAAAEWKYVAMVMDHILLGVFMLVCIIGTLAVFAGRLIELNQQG

Substance | Binding affinity [Ru]
6mer-1-361 (RKSVQR) | 127
6mer-1-382 (KRQYTR) | 139
6mer-1-307 (KRWYRR) | 153
6mer-1-358 (KRRYTR) | 124
6mer-1-323 (RRWLYR) | 149
6mer-1-219 (RRLFCR) | 121

same assay, conditions: 6mer-2 Top sequence; SPR; peptides tested at 10 μM

Substance | Binding affinity [Ru]
6mer-2-167 (KLFQKR) | 145
6mer-2-37 (KLLYRK) | 148
6mer-2-3 (KVYSRK) | 148
6mer-2-80 (RRQYKR) | 148
6mer-2-62 (RLVTKR) | 147
6mer-2-78 (KRYLKR) | 135

same assay, conditions: SPR, Resonance Units; 5mer Bottom sequence (bottom combinations); peptides tested at 10 μM

Substance | Binding affinity [Ru]
5mer-754 (RKNER) | 29
5mer-655 (RKCIR) | 15
5mer-944 (RYEFK) | 25
5mer-1050 (KPEDR) | 31
5mer-745 (RMEIK) | 14
5mer-932 (RTAWK) | 27
5mer-748 (REPMK) | 12
5mer-797 (KETHK) | 15
5mer-1009 (KMCAK) | 29
5mer-757 (KYCMR) | 17
5mer-1100 (RPWKR) | 24
5mer-911 (REHGK) | 14
5mer-1004 (RDADR) | 30
5mer-963 (RAPNK) | 24
5mer-669 (RNPER) | 24
5mer-668 (RPHAK) | 27
5mer-1039 (KKDVK) | 32
5mer-999 (KTKFK) | 19
5mer-779 (KYPPR) | 21
5mer-782 (KANAR) | 32
5mer-674 (KETHR) | 22

same assay, conditions: SPR, Resonance Units; peptides tested at 10 μM; 6mer-1 Bottom sequence

Substance | Binding affinity [Ru]
6mer-1-1081 (KRPSNK) | 23
6mer-1-1153 (RKHNKK) | 23
6mer-1-1112 (KKDPWK) | 27
6mer-1-1070 (KKTCDK) | 24
6mer-1-1041 (RKEHGK) | 23
6mer-1-1148 (RRCSHR) | 31
6mer-1-1014 (KKNAWR) | 25
6mer-1-1051 (KKKSFK) | 43
6mer-1-1196 (KKTTGR) | 25

same assay, conditions: SPR, Resonance Units; peptides tested at 10 μM; 6mer-1 Bottom sequence (Table 11)

Substance | Binding affinity [Ru]
6mer-1-765 (KRASPK) | 25
6mer-1-612 (KRIMER) | 17
6mer-1-796 (RRHAFK) | 28
6mer-1-692 (RKNTHK) | 22
6mer-1-602 (RKAEKR) | 18
6mer-1-772 (KRNCAK) | 12
6mer-1-733 (KKKMFK) | 21
6mer-1-662 (KKMTER) | 20
6mer-1-647 (RKYNVR) | 14
6mer-1-682 (KKKDIR) | 30
6mer-1-634 (KKNTMR) | 12
6mer-1-604 (KKFTKK) | 24
6mer-1-740 (RKDNKR) | 26

same assay, conditions: SPR, Resonance Units; peptides tested at 10 μM; 6mer-2 Bottom sequence

Substance | Binding affinity [Ru]
6mer-2-801 (RPNIRK) | 24
6mer-2-629 (RFCWKK) | 32
6mer-2-826 (RNTPRK) | 11
6mer-2-916 (KTTEKR) | 22
6mer-2-952 (KYWGRR) | 24
6mer-2-955 (RMPERR) | 29
6mer-2-671 (RDWIRR) | 27
6mer-2-708 (RAWVKK) | 29
6mer-2-635 (KECVRR) | 11
6mer-2-885 (KCMVRR) | 17
6mer-2-700 (RPWHKK) | 15
6mer-2-680 (KNHGKR) | 15
6mer-2-636 (KMAPKR) | 21
6mer-2-767 (RICGRK) | 13
6mer-2-619 (RPPDRR) | 26

same assay, conditions: SPR, Resonance Units; peptides tested at 10 μM; 6mer-2 Top sequence

Substance | Binding affinity [Ru]
6mer-2-469 (RLRTKK) | 153
6mer-2-534 (RVQLRR) | 139
6mer-2-519 (KQIQRR) | 135
6mer-2-571 (RGYQRR) | 135
6mer-2-417 (RWVYKK) | 151
6mer-2-511 (RVFCRR) | 126
6mer-2-433 (RWIQKR) | 139
6mer-2-427 (RLQRRR) | 147
6mer-2-557 (KWVLRK) | 123

same assay, conditions: SPR, Resonance Units; peptides tested at 10 μM; 6mer-2 Top sequence (Table 12)

Substance | Binding affinity [Ru]
6mer-2-295 (KVRYKK) | 145
6mer-2-388 (KRFQKK) | 139
6mer-2-368 (RLRTRR) | 142

same assay, conditions: SPR, peptides at 10 μM; 6mer-2 Bottom sequence

Substance | Binding affinity [Ru]
6mer-2-1120 (RDMMKK) | 28
6mer-2-1164 (RYNHKR) | 33
6mer-2-1056 (RNDERK) | 22
6mer-2-1072 (KPHWKR) | 29
6mer-2-1149 (KIDFRR) | 21
6mer-2-1073 (KYSWRK) | 24
6mer-2-1002 (RCNDKR) | 42
6mer-2-1055 (KPDFKR) | 30
6mer-2-1048 (RIHNRK) | 22
6mer-2-1156 (KMNARR) | 35
6mer-2-1190 (KACIRR) | 32

same assay, conditions: SPR, peptides tested at 10 μM; 5mer Top sequence

Substance | Binding affinity [Ru]
5mer-61 (RLILK) | 66
5mer-29 (KGFCR) | 63
5mer-157 (KGRCR) | 78
5mer-66 (KRLLR) | 80
5mer-399 (KWIQR) | 62
5mer-359 (KRFQK) | 79
5mer-446 (RGLQK) | 53
5mer-164 (KSICK) | 54
5mer-198 (KLISR) | 74
5mer-315 (KLFSR) | 77
5mer-113 (KRLRK) | 79
5mer-122 (RSYQK) | 78
5mer-344 (KQFQR) | 52
5mer-503 (KRVSK) | 61
5mer-425 (RGFYR) | 80
5mer-328 (RWVLK) | 61
5mer-351 (KSFSK) | 75
5mer-461 (KQLLK) | 74
5mer-354 (RSQTR) | 64

same assay, conditions: SPR, peptides tested at 10 μM; 5mer Top sequence (top combinations)

Substance | Binding affinity [Ru]
5mer-550 (RQQSR) | 83
5mer-583 (KVVYR) | 75
5mer-524 (RRICR) | 83
5mer-540 (RQFYR) | 74
5mer-568 (KQITR) | 64
5mer-261 (RRVLR) | 59
5mer-597 (KLVSR) | 68

same assay, conditions: SPR, peptides tested at 10 μM; 6mer-1 Bottom sequence (Table 11)

Substance | Binding affinity [Ru]
6mer-1-965 (KRIWDK) | 36
6mer-1-879 (RRYNNR) | 27
6mer-1-808 (RRFEKK) | 24
6mer-1-815 (RRFEMR) | 23
6mer-1-821 (RRTTNR) | 22
6mer-1-852 (KRASVK) | 19
6mer-1-854 (KKEAVR) | 16
6mer-1-921 (RKFWHR) | 36
6mer-1-888 (KKTANK) | 33
6mer-1-885 (RRKTPR) | 17
6mer-1-894 (RKCWWR) | 18
6mer-1-869 (KRKDER) | 22
6mer-1-922 (RRDWGR) | 34
6mer-1-887 (KRINHR) | 30

same assay, conditions: SPR, peptides tested at 10 μM; 6mer-1 Top sequence

Substance | Binding affinity [Ru]
6mer-1-404 (KKQRQK) | 137
6mer-1-466 (KRSICR) | 148

same assay, conditions: SPR, peptides tested at 10 μM; 6mer-1 Top sequence (top combinations)

Substance | Binding affinity [Ru]
6mer-1-162 (KKSLSK) | 142
6mer-1-54 (RRRVCK) | 144
6mer-1-180 (RKLVRK) | 146

same assay, conditions: SPR; XRRGVRR-7mer and RRGVRRX-7mer

Substance | Binding affinity, values relative to the RRGVRR sequence
3665 (RRGVRRP) [compound 3665] | 142

same assay, conditions: SPR; XRRQRR-6mer and RRQRRX-6mer

Substance | Binding affinity, relative value to the RRQRR sequence
3630 (RRQRRF) [compound 3630] | 132

same assay, conditions: SPR; peptides tested at 10 μM; 5mer Bottom sequence

Substance | Binding affinity [Ru]
5mer-843 (KTTPK) | 17
5mer-826 (KCKMK) | 11
5mer-849 (KTWMK) | 15
5mer-1149 (KETDR) | 25
5mer-873 (RYNFR) | 32
5mer-1191 (RMDWK) | 30
